Assay results from the supplement of paper PMC10724198.
± gives the standard deviation of the averaged measurements.

Columns and labels:
[1] = system: Saccharomyces cerevisiae; assay: protein stability index of tFT-peptide fusion (C-terminal peptide) (PSI (0-1 scale)); higher = more stable (slower turnover); details: genetic background: wild type; temperature: 30 C
[2] = system: Saccharomyces cerevisiae; assay: as above
Procedure: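 MPS profiling in S. cerevisiae of the tFT-X12 degron library: putative degron peptides plus stable controls, 12 aa, fused to the C-terminus of a sfGFP-mCherry timer. Cells are FACS-sorted into 8 mCherry/sfGFP bins and deep-sequenced. PSI runs from 0 (unstable) to 1 (stable). Backgrounds are wild type, das1Δ and doa10Δ at 30 °C, and wild type, das1Δ, cdc34-1 and cdc53-1 at 37 °C; 2-3 technical replicates each.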

[3] = genetic background: cdc34-1, temperature: 37 C
[4] = genetic background: cdc53-1, temperature: 37 C
[5] = genetic background: das1 deletion, temperature: 30 C
[6] = genetic background: das1 deletion, temperature: 37 C
[7] = genetic background: doa10 deletion, temperature: 30 C
[8] = genetic background: wild type, temperature: 30 C
[9] = genetic background: wild type, temperature: 37 C
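Also: PSI is a weighted mean of sequencing reads over stability bins, variants kept only with over 10 reads, mCherry proximal and sfGFP distal, peptide attached via GGGS linker.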

| Sequence | protein stability index [1] | protein stability index [2, 3] | protein stability index [2, 4] | protein stability index [2, 5] | protein stability index [2, 6] | protein stability index [2, 7] | protein stability index [2, 8] | protein stability index [2, 9] |
| --- | --- | --- | --- | --- | --- | --- | --- | --- |
| LQVPTLRLFVFF | 0.3 ± 0.0049 | 0.584 ± 0.029 | 0.724 ± 0.033 | 0.577 ± 0.02 | 0.698 ± 0.021 | 0.197 ± 0.0017 | 0.224 ± 0.012 | 0.398 ± 0.026 |
| LRMSLLVFLLFA | 0.314 ± 0.054 | 0.312 ± 0.03 | 0.407 ± 0.033 | 0.261 ± 0.033 | 0.4419 ± 0.0016 | 0.249 ± 0.021 | 0.231 ± 0.025 | 0.399 ± 0.0072 |
| LRQKIIYWWLWL | 0.313 ± 0.0047 | 0.478 ± 0.019 | 0.488 ± 0.021 | 0.472 ± 0.03 | 0.613 ± 0.008 | 0.255 ± 0.011 | 0.245 ± 0.011 | 0.3523 ± 0.001 |
| LRVLSVVRLSVW | 0.468 ± 0.055 | 0.479 ± 0.0067 | 0.545 ± 0.023 | 0.407 ± 0.034 | 0.545 ± 0.011 | 0.382 ± 0.02 | 0.4 ± 0.025 | 0.54567 ± 0.00028 |
| LSARVFCFWFFS | 0.31 ± 0.024 | 0.586 ± 0.018 | 0.635 ± 0.011 | 0.549 ± 0.05 | 0.677 ± 0.028 | 0.187 ± 0.017 | 0.201 ± 0.011 | 0.2852 ± 0.0022 |
| LSFLCFSTVLHC | 0.503 ± 0.073 | 0.557 ± 0.0096 | 0.606 ± 0.019 | 0.511 ± 0.017 | 0.58 ± 0.019 | 0.46 ± 0.022 | 0.462 ± 0.03 | 0.54302 ± 0.00015 |
| LSFLFFRLCSFF | 0.203 ± 0.061 | 0.487 ± 0.066 | 0.551 ± 0.0081 | 0.568 ± 0.034 | 0.668 ± 0.021 | 0.157 ± 0.0029 | 0.158 ± 0.017 | 0.184 ± 0.04 |
| LSLLCFVASVVA | 0.275 ± 0.016 | 0.168 ± 0.0083 | 0.195 ± 0.005 | 0.238 ± 0.027 | 0.292 ± 0.015 | 0.1585 ± 0.00028 | 0.194 ± 0.021 | 0.224 ± 0.013 |
| LSLVIFIFLYCR | 0.227 ± 0.053 | 0.0945 ± 0.016 | 0.123 ± 0.037 | 0.179 ± 0.0092 | 0.234 ± 0.0042 | 0.27 ± 0.033 | 0.169 ± 0.023 | 0.205 ± 0.027 |
| LSLWPIFGIIYC | 0.4508 ± 0.0019 | 0.46 ± 0.035 | 0.4637 ± 0.0007 | 0.357 ± 0.024 | 0.516 ± 0.013 | 0.332 ± 0.011 | 0.364 ± 0.019 | 0.513 ± 0.019 |
| LSPPPLSFPFSA | 0.136 ± 0.021 | 0.704 ± 0.0072 | 0.753 ± 0.02 | 0.623 ± 0.012 | 0.737 ± 0.011 | 0.643 ± 0.017 | 0.666 ± 0.024 | 0.7118 ± 0.0069 |
| LSVVVLVLCVLL | 0.353 ± 0.033 | 0.285 ± 0.028 | 0.403 ± 0.02 | 0.279 ± 0.04 | 0.42 ± 0.027 | 0.268 ± 0.023 | 0.283 ± 0.023 | 0.428 ± 0.082 |
| LVGYCGAWACVV | 0.4 ± 0.036 | 0.642 ± 0.034 | 0.677 ± 0.021 | 0.558 ± 0.023 | 0.674 ± 0.018 | 0.244 ± 0.011 | 0.283 ± 0.027 | 0.501 ± 0.025 |
| LVLCCGFWFRAV | 0.381 ± 0.025 | 0.619 ± 0.046 | 0.606 ± 0.038 | 0.464 ± 0.031 | 0.612 ± 0.0063 | 0.27 ± 0.0049 | 0.286 ± 0.029 | 0.501 ± 0.02 |
| LVLGVEVCFVLG | 0.273 ± 0.015 | 0.102 ± 0.0073 | 0.16 ± 0.011 | 0.177 ± 0.033 | 0.296 ± 0.0065 | 0.147 ± 0.012 | 0.168 ± 0.032 | 0.246 ± 0.022 |
| LVPYLWWLVFAL | 0.274 ± 0.027 | 0.189 ± 0.015 | 0.125 ± 0.023 | 0.192 ± 0.028 | 0.319 ± 0.046 | 0.202 ± 0.011 | 0.143 ± 0.019 | 0.24 ± 0.026 |
| LVVFGLVLSLLL | 0.469 ± 0.025 | 0.449 ± 0.013 | 0.477 ± 0.006 | 0.376 ± 0.022 | 0.5066 ± 0.0043 | 0.356 ± 0.008 | 0.374 ± 0.022 | 0.495 ± 0.03 |
| LVVWASLVRVEG | 0.33 ± 0.032 | 0.271 ± 0.033 | 0.3235 ± 0.003 | 0.252 ± 0.037 | 0.4191 ± 0.0033 | 0.2034 ± 0.00022 | 0.255 ± 0.02 | 0.389 ± 0.0079 |
| LVWDLFRCFSML | 0.242 ± 0.026 | 0.582 ± 0.018 | 0.7165 ± 0.001 | 0.647 ± 0.032 | 0.759 ± 0.038 | 0.23 ± 0.0054 | 0.228 ± 0.021 | 0.351 ± 0.029 |
| LVWSGLIVVVGG | 0.3 ± 0.042 | 0.179 ± 0.024 | 0.204 ± 0.064 | 0.2 ± 0.03 | 0.318 ± 0.013 | 0.176 ± 0.033 | 0.195 ± 0.033 | 0.269 ± 0.012 |
| LWAVGVATDWGG | 0.734 ± 0.022 | 0.706 ± 0.018 | 0.7571 ± 0.0035 | 0.684 ± 0.029 | 0.768 ± 0.015 | 0.694 ± 0.021 | 0.689 ± 0.011 | 0.7513 ± 0.0075 |
| LWERRSRQLTMF | 0.263 ± 0.013 | 0.645 ± 0.056 | 0.7649 ± 0.003 | 0.687 ± 0.014 | 0.7401 ± 0.0057 | 0.173 ± 0.011 | 0.166 ± 0.018 | 0.33 ± 0.026 |
| LWGLVGVCLVLC | 0.169 ± 0.0084 | 0.0679 ± 0.011 | 0.0705 ± 0.004 | 0.176 ± 0.021 | 0.229 ± 0.0061 | 0.135 ± 0.0079 | 0.113 ± 0.016 | 0.134 ± 0.011 |
| LWVMVLFFPGCS | 0.463 ± 0.043 | 0.3714 ± 0.0026 | 0.493 ± 0.0033 | 0.307 ± 0.042 | 0.552 ± 0.024 | 0.299 ± 0.0056 | 0.326 ± 0.025 | 0.5361 ± 0.0032 |
| LWVSHFVILIVS | 0.213 ± 0.03 | 0.122 ± 0.032 | 0.105 ± 0.0073 | 0.135 ± 0.03 | 0.236 ± 0.0048 | 0.0934 ± 0.036 | 0.108 ± 0.026 | 0.16 ± 0.0095 |
| LYRSLLLSFCVL | 0.483 ± 0.0052 | 0.593 ± 0.023 | 0.6381 ± 0.00019 | 0.528 ± 0.011 | 0.639 ± 0.018 | 0.407 ± 0.031 | 0.411 ± 0.022 | 0.521 ± 0.012 |
| LYSLRRNWLRTP | 0.323 ± 0.04 | 0.637 ± 0.032 | 0.726 ± 0.016 | 0.672 ± 0.016 | 0.772 ± 0.0095 | 0.1676 ± 0.0011 | 0.21 ± 0.026 | 0.478 ± 0.019 |
| MALAVRVVPCGA | 0.397 ± 0.017 | 0.373 ± 0.012 | 0.385 ± 0.011 | 0.291 ± 0.028 | 0.4637 ± 0.0008 | 0.264 ± 0.011 | 0.287 ± 0.037 | 0.421 ± 0.0078 |
| MALAVRVVSCGA | 0.3657 ± 0.0028 | 0.294 ± 0.015 | 0.3333 ± 0.0024 | 0.265 ± 0.032 | 0.4146 ± 0.0036 | 0.2244 ± 0.00017 | 0.262 ± 0.016 | 0.3802 ± 0.0015 |
| MCVCLLVRVVPS | 0.297 ± 0.044 | 0.188 ± 0.0053 | 0.3241 ± 0.00049 | 0.211 ± 0.029 | 0.41 ± 0.01 | 0.175 ± 0.0074 | 0.194 ± 0.022 | 0.357 ± 0.0044 |
